From the supplement of paper PMC9170038

Test system: MS2 coat protein
Test: apparent KD of MS2 coat protein; designed switch direction (-1 OFF switch, 1 ON switch): -1; higher = weaker reporter binding
Settings: Eterna round: R98
Description: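 RNA-MaP: designed FMN/MS2 RNA switches (84 nt design region) are transcribed on-chip within common flanks and titrated with SNAP-549-labelled MS2 coat protein (about 1-3000 nM) in 100 mM Tris pH 7.5, 80 mM KCl, 4 mM MgCl2, without or with 200 uM FMN. Median apparent KD per design; activation ratio = KD,OFF / KD,ON.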

GCACUGGAUGUAGGAUAUCAGGACGAUAAGUCCUGAGAAGGACAUGAGGAUCACCCAUGUGAAUAAAACCAGUGCAAUAAUAUA [Denovo Exng1 22]
apparent KD of MS2 coat protein (input ligand: FMN 200 uM): 30.9 nM | apparent KD of MS2 coat protein (input ligand: none): 13.4 nM
